Experimental data reported in paper PMC6941992, “Polar recruitment of RLD by LAZY1-like protein during gravity signaling in root branch angle control” (Nature Communications, 2020).

Molecular target: T1, RLD2 BRX domain (residues 1006-1066) (Arabidopsis thaliana, UniProt F4K0X5 1006-1066)
T1 construct: HRV3C cleavage may leave vector residues at the N-terminus (surmised); source: E. coli BL21Star (DE3), purified (His-tag resin, HRV3C cleavage, gel filtration); for crystals co-expressed with LZY3 (274-287); not shown: His6, N-terminal, cleaved
T1 sequence (looked up): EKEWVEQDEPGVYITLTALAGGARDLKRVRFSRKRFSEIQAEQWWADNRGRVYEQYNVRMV
Test: ITC; iTC200, 20 °C; 20 mM Tris-HCl pH 8.0, 150 mM NaCl; 200 μM LZY3 (274-287) injected into 20 μM RLD2 BRX domain; 1:1 binding model
Conditions: both partners purified

B1: LZY3 CCL peptide (residues 274-287) (peptide, UniProt Q5XVG3 274-287, looked up)
chain: KWVKTDSDFIVLEI
notes: LZY3 (LAZY1-LIKE 3), Arabidopsis thaliana, residues 274-287 (CCL domain); HRV3C cleavage may leave vector residues at the N-terminus (surmised); also called CCL β-hairpin; source: E. coli BL21Star (DE3), purified (glutathione sepharose, HRV3C cleavage, gel filtration, reverse phase); for crystals co-expressed with RLD2; not shown: GST, N-terminal, cleaved
**Q.** How did the Kd turn out when B1 was run?
**A.** 9.7 ± 2.2 nM

**Q.** What about the dH of the same binder?
**A.** -11.3 ± 0.09 kcal/mol

**Q.** What about the “stoichiometry N” value of the same binder?
**A.** 0.73 ± 0.002
